Measured values from patent US20060246519A1, “MONOMERIC STREPTAVIDIN MUTEINS” (priority 2005, published 2006).

Key:
[1] = Cross-linking reactions with sulfo-EGS; format: physicochemical; settings: 10-fold molar excess sulfo-EGS, 30 min, room temperature
Method: Cross-linking of streptavidin and its muteins was carried out using sulfo-EGS [ethylene glycolbis(sulfosuccinimidyl succinate)] (Pierce) as the cross-linker. A typical reaction mixture (20 μl) contained the purified mutein (0.2 5 mg/ml) and sulfo-EGS (10-fold molar excess over the protein) in PBS. After 30 min at room temperature, the reaction was quenched with Tris-HCl (30 mM, pH 7.5). Aliquots of the cross-linking reaction samples were boiled and examined by SDS-PAGE. Lysozyme (Sigma, 0.25 mg/ml) was included in the study to help establish the optimal reaction conditions.

[2] = Degree of monomerization of non-boiled samples in SDS-PAGE / Western blot; format: physicochemical
Method: FIG. 3: Western blot analysis of cell culture supernatants from B. subtilis strains producing streptavidin muteins carrying a single mutation. 15 μl of non-boiled sample of culture supernatant was loaded to each lane. Samples on the left set were collected from B. subtilis strains cultured in super-rich medium without additional supplement of biotin. Samples on the right set were collected from B. subtilis strains cultured in super-rich medium with additional supplementation of biotin (20 μM). The blot was probed with polyclonal antibodies against streptavidin and developed using 4-chloro-1-napthol (Bio-Rad) as the colour development agent. […] M, molecular weight markers; wt, wild type streptavidin.
FIG. 4: Analysis of culture supernatants from B. subtilis strains producing streptavidin muteins carrying different combinations of mutations. All these strains were cultivated in super-rich medium supplemented with biotin (20 μM). The 15 μl of non-boiled samples of culture supernatants were loaded. FIG. 4A. Coomassie blue stained SDS-polyacrylamide gel. […]
Streptavidin muteins carrying a single amino-acid change at the selected site may be produced in their soluble form by B. subtilis via secretion. […] Since biotin can strengthen subunit interaction, samples were analyzed in the presence or absence of biotin (Laitinen, 2001; Gonzalez, 1999). […]

Solubility of mutein = format: physicochemical; settings: at a concentration of 2 mg/ml
[3] = Apparent molecular mass by gel filtration (Bio-Prep SE 100/17); format: physicochemical
Excerpt: FIG. 6: Gel filtration profiles of streptavidin muteins. FIG. 6A. […] Bovine gamma-globulin (158 kDa), bovine serum albumin (66 kDa), ovalbumin (44 kDa), myoglobin (17 kDa) and vitamin B-12 (1.35 kDa) were used as molecular mass markers (closed circles) to calibrate the column. The logarithm of molecular mass was plotted versus Kav (Kav=(Ve−Vo)/(Vt−Vo); Ve, elution volume; Vo, void volume; Vt, bed volume). Positions of wild-type streptavidin (wt) and streptavidin muteins are represented by solid squares. FIG. 6B. Elution profile of M4 mutein (loaded at 2 mg/ml) on the gel filtration column.
(§1) Molecular mass of purified streptavidin and its muteins was estimated by both gel filtration and dynamic light scattering studies. Gel filtration was performed on the Bio-Rad biologic workstation equipped with a Bio-Prep SE 100/17 column that had been calibrated with molecular mass protein markers (Bio-Rad). Molecular mass was also estimated from the hydrodynamic radius of the mutein obtained using a DynaPro MS dynamic light scattering instrument (Protein Solutions, USA) that had been calibrated with lysozyme. Protein samples (2-3 mg/ml in PBS) were passed through a 0.02 μm filter (Whatman Anodisc 13) immediately prior to measurement. The size distribution profile was analyzed using the manufacturer's Dynamics V6 software.

[4] = Dynamic light scattering (hydrodynamic radius, estimated molecular mass); format: physicochemical; settings: for M (kDa) (Dynamic light scattering): calculated from measured RH using a protein calibration curve
Method: as §1

[5] = system: Biotin-conjugated bovine serum albumin; assay: Kinetic analysis by surface plasmon resonance BIAcoreX biosensor; format: binding; settings: interaction with biotin
Method: FIG. 8: Kinetic parameters for the interaction between M4 streptavidin mutein and biotin as monitored by BIAcore biosensor. A. On-rate (ka) determination. ka is derived from association analysis. kd is the slope of the plot of In(Ro/Rt) versus (t−to) where Ro is the response at an arbitrary starting time to; Rt is the response at time t.
The kinetic parameters (both on- and off-rates for interaction with biotin) of streptavidin muteins were determined in real time using the surface plasmon resonance based BIAcoreX biosensor. Biotin-conjugated bovine serum albumin immobilized on CM5 sensor chip was used to study the reversibility of biotin binding (Qureshi, 2001).

proteinase K = assay: Proteinase K digestion of streptavidin and its muteins; format: biochemical; settings: independent of the presence or absence of biotin; 5 μM proteinase K, 15 min, 30° C.
Method: Purified streptavidin and its muteins (30 μM monomer) were treated with proteinase K (Invitrogen, 5 μM) for 15 min at 30° C. in 50 mM Tris-HCl containing 5 mM CaCl2, pH 8.0. The reaction was stopped by precipitation with trichloroacetic acid (Ellison, 1995). Boiled samples of precipitated proteins were resolved by reducing SDS-PAGE. The same analysis was performed with streptavidin samples treated with biotin (1 mM final concentration) prior to proteinase K digestion.

B1: M4: monomeric streptavidin quadruple mutant carrying T76R, V125R, V55T and L109T mutations (protein)
chain: MNIKKFAKQATVLTFTTALLAGGATQAFADPSKDSKAQVSAAEAGITGTWYNQLGSTFIVTAGADGALTGTYESAVGNAESRYTLTGRYDSAPATDGSGTALGWRVAWKNNYRNAHSATTWSGQYVGGAEARINTQWTLTSGTTEANAWKSTLRGHDTFTKVKPSAASIDAAKKAGVNNGNPLDAVQQ
modifications: Amino acid sequence for secretory production of streptavidin M4 in B. subtilis
notes: monomeric streptavidin quadruple mutant carrying T76R, V125R, V55T and L109T mutations
Oligomeric state after cross-linking with sulfo-EGS (SDS-PAGE) [1]: migrated as monomers
Monomer (percentage of streptavidin in monomeric state) ([2]; No additional biotin): 100%
Monomer (percentage of streptavidin in monomeric state) ([2]; With additional biotin (20 μM)): 100%
solubility (Solubility of mutein): excellent solubility
M (kDa) (Gel filtration) ([3]; +biotin): 24.54 kDa
M (kDa) (Gel filtration) ([3]; no biotin): 21.87 kDa
RH (nm) (Dynamic light scattering) ([4]; +biotin): 2.20 ± 0.14 nm
M (kDa) (Dynamic light scattering) ([4]; +biotin): 21.5 kDa
RH (nm) (Dynamic light scattering) ([4]; no biotin): 2.08 ± 0.31 nm
M (kDa) (Dynamic light scattering) ([4]; no biotin): 18.1 kDa
ka, on-rate [5]: 1.80 ± 0.04 × 10^4 M^−1s^−1
kd, off-rate [5]: 3.39 ± 0.02 × 10^−3 s^−1
Susceptibility to proteinase K digestion (proteinase K): completely digested
